Patent US20140072613A1, “Compositions and Methods for Treating Cutaneous Scarring” (priority 2012, published 2014)

Legend:
Assay in all cases: cell-based or functional assay
[1] = biological target: PKGδ(h) (human)
[2] = biological target: Pim-2(h) (human) (UniProt Q9P1W9)
[3] = biological target: T1, Flt3(h) (human) (UniProt P36888)
T1 sequence (looked up): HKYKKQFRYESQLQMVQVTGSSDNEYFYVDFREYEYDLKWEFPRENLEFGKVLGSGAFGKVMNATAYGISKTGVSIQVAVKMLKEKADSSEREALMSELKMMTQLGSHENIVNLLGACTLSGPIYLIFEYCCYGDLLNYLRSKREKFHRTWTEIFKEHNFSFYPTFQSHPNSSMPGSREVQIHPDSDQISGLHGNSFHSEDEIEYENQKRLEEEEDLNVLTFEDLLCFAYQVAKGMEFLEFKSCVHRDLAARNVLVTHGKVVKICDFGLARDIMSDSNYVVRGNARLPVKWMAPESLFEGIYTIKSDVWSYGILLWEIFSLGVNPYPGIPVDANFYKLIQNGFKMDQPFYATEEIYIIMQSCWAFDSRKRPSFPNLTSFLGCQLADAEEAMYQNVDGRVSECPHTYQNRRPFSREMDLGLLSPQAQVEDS

[4] = biological target: T2, PKD2(h) (human) (UniProt Q9BZL6)
T2 sequence (looked up): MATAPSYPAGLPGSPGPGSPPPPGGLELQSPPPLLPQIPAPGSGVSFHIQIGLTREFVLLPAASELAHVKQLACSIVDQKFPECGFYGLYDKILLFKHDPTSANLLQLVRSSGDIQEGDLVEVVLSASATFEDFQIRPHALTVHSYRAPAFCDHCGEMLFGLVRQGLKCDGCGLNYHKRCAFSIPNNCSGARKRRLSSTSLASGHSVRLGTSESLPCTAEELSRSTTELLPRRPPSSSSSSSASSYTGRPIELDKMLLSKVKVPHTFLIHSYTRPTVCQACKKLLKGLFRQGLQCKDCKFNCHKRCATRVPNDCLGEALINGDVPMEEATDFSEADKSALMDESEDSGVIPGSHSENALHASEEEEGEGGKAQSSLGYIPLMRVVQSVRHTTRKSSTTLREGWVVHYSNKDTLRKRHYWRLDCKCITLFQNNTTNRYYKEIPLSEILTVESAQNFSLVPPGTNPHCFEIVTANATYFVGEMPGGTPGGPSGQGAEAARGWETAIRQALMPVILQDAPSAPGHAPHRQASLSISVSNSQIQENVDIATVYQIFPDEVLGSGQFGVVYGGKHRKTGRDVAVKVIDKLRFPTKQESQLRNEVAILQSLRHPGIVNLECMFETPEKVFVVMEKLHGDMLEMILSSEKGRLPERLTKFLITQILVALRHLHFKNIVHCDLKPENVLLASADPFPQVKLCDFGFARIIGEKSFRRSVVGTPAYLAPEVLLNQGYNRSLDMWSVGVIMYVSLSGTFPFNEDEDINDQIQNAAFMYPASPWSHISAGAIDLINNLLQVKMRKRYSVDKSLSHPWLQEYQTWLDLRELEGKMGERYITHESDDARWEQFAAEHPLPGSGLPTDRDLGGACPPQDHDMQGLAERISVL

[5] = biological target: T3, Mer(h) (human) (UniProt Q12866)
T3 sequence (looked up): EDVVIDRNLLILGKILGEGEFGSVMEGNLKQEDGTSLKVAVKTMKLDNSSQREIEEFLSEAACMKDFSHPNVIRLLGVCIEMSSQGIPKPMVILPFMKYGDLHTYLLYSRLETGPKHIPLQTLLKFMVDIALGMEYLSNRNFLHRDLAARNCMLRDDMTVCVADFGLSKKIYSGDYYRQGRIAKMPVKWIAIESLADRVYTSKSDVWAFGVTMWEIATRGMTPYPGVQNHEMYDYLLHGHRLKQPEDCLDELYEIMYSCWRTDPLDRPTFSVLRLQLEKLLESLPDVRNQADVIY

[6] = biological target: T4, TAO2(h) (human) (UniProt Q9UL54)
T4 sequence (looked up): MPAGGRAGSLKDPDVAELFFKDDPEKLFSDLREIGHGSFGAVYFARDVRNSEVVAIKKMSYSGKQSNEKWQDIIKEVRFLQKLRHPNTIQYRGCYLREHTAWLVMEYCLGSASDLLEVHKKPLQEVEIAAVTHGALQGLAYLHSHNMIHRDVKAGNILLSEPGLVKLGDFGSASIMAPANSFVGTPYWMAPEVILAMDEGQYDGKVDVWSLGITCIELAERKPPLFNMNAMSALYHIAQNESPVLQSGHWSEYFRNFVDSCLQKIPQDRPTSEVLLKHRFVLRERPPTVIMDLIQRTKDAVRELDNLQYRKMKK

[7] = biological target: BTK(R28H)(h) (human) (UniProt Q06187)
Sequence of BTK(R28H)(h) (human) (Q06187 whole entry R28H): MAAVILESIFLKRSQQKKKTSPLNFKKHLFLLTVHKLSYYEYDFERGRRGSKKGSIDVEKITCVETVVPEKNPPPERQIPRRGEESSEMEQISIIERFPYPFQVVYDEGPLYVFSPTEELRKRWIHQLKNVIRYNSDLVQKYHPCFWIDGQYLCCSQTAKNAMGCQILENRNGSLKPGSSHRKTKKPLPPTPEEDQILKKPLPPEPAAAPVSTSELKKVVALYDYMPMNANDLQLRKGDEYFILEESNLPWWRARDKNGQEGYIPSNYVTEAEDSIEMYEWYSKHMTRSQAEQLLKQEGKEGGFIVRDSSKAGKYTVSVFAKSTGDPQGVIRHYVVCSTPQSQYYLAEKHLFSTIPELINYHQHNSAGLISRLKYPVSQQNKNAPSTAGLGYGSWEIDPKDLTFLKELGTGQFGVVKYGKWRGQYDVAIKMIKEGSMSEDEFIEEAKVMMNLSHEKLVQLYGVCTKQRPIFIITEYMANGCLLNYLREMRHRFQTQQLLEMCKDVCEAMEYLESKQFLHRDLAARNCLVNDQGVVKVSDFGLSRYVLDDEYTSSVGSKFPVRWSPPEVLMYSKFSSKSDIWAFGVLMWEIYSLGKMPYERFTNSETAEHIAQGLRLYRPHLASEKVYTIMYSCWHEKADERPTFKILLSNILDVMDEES

[8] = biological target: Rsk1(h) (human) (UniProt Q15418)
Sequence of Rsk1(h) (human) (Q15418 whole entry): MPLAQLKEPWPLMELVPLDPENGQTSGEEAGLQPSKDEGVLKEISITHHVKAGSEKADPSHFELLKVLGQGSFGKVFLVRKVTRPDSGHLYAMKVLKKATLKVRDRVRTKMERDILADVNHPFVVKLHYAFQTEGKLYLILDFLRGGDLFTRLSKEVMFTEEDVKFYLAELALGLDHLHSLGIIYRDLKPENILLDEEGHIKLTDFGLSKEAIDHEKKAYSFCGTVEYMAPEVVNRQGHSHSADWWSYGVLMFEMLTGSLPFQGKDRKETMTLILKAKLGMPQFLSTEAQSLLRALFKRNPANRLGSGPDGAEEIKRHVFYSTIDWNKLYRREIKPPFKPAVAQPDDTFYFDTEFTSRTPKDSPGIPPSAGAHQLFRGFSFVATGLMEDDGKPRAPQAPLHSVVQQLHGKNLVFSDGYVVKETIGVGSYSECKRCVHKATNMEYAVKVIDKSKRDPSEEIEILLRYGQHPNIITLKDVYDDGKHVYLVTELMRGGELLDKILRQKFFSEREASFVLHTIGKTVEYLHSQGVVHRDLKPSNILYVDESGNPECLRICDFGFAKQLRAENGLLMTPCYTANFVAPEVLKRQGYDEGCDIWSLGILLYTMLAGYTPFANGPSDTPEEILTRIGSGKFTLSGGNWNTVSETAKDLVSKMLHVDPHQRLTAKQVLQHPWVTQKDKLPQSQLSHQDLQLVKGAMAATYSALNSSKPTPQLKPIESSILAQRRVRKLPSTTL

[9] = biological target: T5, IKKα(h) (human) (UniProt O15111)
T5 sequence (looked up): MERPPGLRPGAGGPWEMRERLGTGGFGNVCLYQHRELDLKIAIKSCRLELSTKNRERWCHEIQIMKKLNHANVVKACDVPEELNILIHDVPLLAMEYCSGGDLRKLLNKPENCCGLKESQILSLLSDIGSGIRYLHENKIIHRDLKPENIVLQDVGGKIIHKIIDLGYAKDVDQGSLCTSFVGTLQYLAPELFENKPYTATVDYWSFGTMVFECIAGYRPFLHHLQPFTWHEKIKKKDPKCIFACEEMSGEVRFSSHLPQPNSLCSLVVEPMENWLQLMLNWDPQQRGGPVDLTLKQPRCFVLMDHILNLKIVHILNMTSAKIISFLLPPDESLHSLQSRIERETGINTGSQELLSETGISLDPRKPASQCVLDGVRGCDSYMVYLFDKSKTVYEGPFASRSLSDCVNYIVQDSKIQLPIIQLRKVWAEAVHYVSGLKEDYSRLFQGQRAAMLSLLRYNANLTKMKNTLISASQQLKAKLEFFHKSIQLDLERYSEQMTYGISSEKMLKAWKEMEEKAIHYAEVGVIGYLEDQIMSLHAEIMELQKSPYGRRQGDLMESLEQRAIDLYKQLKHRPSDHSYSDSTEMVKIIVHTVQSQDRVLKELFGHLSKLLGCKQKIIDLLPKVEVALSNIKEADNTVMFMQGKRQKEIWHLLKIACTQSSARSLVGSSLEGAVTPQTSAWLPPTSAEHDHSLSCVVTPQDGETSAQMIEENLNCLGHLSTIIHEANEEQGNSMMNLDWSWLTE

[10] = biological target: CLK3(h) (human) (UniProt P49761)
Sequence of CLK3(h) (human) (P49761 whole entry): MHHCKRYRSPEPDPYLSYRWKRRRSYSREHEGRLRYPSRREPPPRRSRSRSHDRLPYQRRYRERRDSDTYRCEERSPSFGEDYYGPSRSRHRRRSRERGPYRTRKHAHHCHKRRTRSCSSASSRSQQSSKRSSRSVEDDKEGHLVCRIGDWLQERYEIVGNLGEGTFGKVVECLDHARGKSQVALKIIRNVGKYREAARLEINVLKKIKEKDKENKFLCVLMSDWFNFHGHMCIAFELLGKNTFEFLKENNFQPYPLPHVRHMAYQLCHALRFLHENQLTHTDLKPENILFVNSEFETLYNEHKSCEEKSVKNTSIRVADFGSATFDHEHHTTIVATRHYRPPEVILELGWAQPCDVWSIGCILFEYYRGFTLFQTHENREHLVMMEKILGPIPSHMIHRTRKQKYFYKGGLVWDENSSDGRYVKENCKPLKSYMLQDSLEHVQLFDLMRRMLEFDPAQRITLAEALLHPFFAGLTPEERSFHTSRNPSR

[11] = biological target: TrkA(h) (human) (UniProt P04629)
Sequence of TrkA(h) (human) (P04629 441-796 limits assumed): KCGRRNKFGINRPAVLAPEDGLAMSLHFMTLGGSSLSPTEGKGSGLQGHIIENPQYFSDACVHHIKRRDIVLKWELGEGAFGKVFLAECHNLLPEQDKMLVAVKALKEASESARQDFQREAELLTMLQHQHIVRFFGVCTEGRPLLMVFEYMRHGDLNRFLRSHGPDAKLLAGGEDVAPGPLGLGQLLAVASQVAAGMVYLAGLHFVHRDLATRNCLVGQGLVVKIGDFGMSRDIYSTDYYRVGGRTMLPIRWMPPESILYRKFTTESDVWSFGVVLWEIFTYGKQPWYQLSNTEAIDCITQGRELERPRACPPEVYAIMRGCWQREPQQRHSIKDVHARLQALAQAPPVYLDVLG

[12] = biological target: Abl(M351T)(h) (human) (UniProt P00519)
Sequence of Abl(M351T)(h) (human) (P00519 27-1130 M351T limits assumed): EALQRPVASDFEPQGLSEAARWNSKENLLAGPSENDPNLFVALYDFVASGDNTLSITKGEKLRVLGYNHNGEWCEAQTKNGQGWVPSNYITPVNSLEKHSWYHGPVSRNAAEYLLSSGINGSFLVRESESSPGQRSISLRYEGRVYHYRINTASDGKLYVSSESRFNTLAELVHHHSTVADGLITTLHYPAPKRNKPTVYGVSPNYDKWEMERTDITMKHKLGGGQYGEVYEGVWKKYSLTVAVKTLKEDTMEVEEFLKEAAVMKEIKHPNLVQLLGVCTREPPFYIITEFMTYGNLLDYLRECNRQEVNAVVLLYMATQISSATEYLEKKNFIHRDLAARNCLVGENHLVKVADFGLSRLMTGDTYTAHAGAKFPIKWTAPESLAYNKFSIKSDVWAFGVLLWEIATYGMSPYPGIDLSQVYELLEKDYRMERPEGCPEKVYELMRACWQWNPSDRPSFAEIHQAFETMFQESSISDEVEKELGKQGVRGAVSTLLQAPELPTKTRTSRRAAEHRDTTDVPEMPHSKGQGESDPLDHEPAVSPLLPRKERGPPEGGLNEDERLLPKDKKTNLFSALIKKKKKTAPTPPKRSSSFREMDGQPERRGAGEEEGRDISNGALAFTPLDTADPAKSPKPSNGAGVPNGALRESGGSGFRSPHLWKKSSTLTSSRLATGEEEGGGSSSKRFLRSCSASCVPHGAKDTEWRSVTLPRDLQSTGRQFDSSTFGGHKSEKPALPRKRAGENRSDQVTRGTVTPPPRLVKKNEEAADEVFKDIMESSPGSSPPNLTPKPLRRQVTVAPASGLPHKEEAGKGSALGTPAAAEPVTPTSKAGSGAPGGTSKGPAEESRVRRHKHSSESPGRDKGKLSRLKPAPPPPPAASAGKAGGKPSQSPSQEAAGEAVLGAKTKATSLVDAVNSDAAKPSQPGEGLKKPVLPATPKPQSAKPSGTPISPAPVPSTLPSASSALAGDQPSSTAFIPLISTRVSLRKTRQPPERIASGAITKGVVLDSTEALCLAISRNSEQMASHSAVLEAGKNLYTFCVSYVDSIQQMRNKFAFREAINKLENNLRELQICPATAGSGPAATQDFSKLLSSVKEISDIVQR

Sequence of Pim-2(h) (human) (Q9P1W9 whole entry): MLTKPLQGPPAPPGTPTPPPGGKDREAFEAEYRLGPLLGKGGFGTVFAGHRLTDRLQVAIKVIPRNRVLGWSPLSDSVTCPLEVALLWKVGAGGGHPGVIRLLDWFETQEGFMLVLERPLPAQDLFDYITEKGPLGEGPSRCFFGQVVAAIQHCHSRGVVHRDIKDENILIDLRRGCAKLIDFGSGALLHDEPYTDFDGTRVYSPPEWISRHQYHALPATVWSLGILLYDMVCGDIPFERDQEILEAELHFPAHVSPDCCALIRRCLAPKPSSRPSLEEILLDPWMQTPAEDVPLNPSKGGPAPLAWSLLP

MMI-0500 (peptide)
% activity, 100 µM [1]: 61% | % activity, 100 µM [2]: 46% | % activity, 100 µM [3]: 17% | % activity, 100 µM [4]: 10% | % activity, 100 µM [5]: 17% | % activity, 100 µM [6]: 15% | % activity, 100 µM [7]: 10% | % activity, 100 µM [8]: 34% | % activity, 100 µM [9]: 50% | % activity, 100 µM [10]: 76% | % activity, 100 µM [11]: 24% | % activity, 100 µM [12]: 61%
